Data reported in PMC5148205.

Biological target: T1, H-NS (Shewanella oneidensis MR-1) (UniProt Q8ECJ6)
T1 sequence: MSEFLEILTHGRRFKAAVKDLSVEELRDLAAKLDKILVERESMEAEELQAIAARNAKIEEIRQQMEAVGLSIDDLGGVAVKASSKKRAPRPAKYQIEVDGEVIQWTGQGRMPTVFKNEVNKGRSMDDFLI
Experiment: EMSA
Settings: H-NS incubated with biotin-labelled probe with or without unlabelled probe, 1 h at different temperatures; binding buffer not stated (refers to Liu et al. 2015)

Row | Sequence | binding
1 | TAGCGATGAAATGGCTTTTTGGGTGGCGGTTTATCGTGATTAACGCAGAAGGTGAAGCGTGGTACATCGATGTTAAACCTGATGCCAAAGTAAAACCTGTTGGTAAAAATAAGGACGGTGCATAATGTTTCAGCAAGAAATAGAAGCTATGCAGGGTAAAGTGGTGCAGCAG (double strand) [PSO_3012 (LambdaSo excisionase promoter)] | no binding
2 | GATTTTCTAGTGACAGAAGGTTTTAGCGTTGATAATGCCAAATATGCTGAATTATTTTTGAGACCGAGTAAATTTCTTAGGGGACCAAAAAAACGCATATAATACAATGGATAATGCAATTTAGGTGAGCAAAGGGGACCGTTTTTACCCCGTTTATTCATGCTTCATAACCATCTAATCTCAGGGTTGTAGACGTTTATTCACAACTCTGAGGACGATTATGAACACAACTCTCAC (double strand) [PalpA (alpA promoter)] | binds
